Test results as given in patent publication US9725518B2, “Antibodies that bind to Jagged 1” (Cancer Research Technology Limited, priority 2013, dated 2017).

Experiments:
[1] = target: T1, N1 binding to cell surface expressed hJ1 (Homo sapiens, UniProt P78504); assay: Notch binding blocking assay (FACS): N1 EGF11-13 beads staining human J1-expressing cells; parameters: key: +: Complete blocking; X: No blocking
T1 construct: cell expressed full length human J1 (hJ1; HEK293 transfectants); expressed in transfected cells; host or cells: HEK293
Description: To functionally identify mAbs with the capacity to disrupt the J1-N1 protein:protein interaction, hybridoma culture supernatants were tested in a FACS-based binding assay. Biotinylated soluble human N1 EGF11-13 recombinant protein was bound to avidin-coated beads and used to stain J1-expressing cells in the presence or absence of each mAb that recognised cell surface hJ1 by FACS. […] The four blocking antibodies of the invention were also able to block the binding of recombinant […] to a biotin-tagged J1 DSL-EGF3 recombinant protein in an ELISA assay (FIG. 1B). […] The four blocking mAbs of the invention were purified from serum-free culture supernatants and equal concentrations of purified antibodies were used to compare their activity in subsequent assays (unless hybridoma supernatant was specified). Sequence conservation across the DSL domain raised the possibility that the J1 mAbs may also be able to bind the Jagged 2 (J2) protein. Antibody binding specificity was initially tested by immunocytochemical labelling of cytospin samples of hJ1 and hJ2 transfectants (FIG. 2). All antibodies stained J1 transfectants but none stained the J2 transfected cells, and J2 expression in the same experiment was confirmed using a commercial anti-J2 antibody. The specificity of the purified mAbs was further investigated in mammalian cells transfected with hJ2, human Delta-like ligand 4 (hDLL4), or mJ1 (FIG. 3). Transfectants were FACS stained with 10 μg/ml of each of the four blocking mAbs.
To test the blocking efficiencies of the J1 mAbs, purified mAbs were titrated to determine the concentration required to block recombinant N1 binding to cell surface expressed hJ1. Beads coated with a bacterially-expressed N1 EGF11-13 protein were used to stain the hJ1-expressing cells in the presence of various concentrations of mAbs.
The FACS-based binding assay using biotinylated soluble human N1 EGF11-13 recombinant protein bound to avidin-coated fluorescent beads to stain J1-expressing cells was performed using a dilution series of each variant mAb to test their ability to block J1 binding to N1 by FACS (Table 7). […] Thus 12/16 J1-65D1 variants V1-12 and all J1-183D variants have the desired binding and blocking activity.
Human N1 EGF11-13 (411-526) was expressed in E. coli, refolded in vitro and labelled with purple fluorescent avidin-coated beads (Spherotech) as previously described. HEK293 cells transfected with human J1 or B16F10 cells transfected with mouse J1 were stained with N1 fluorescent beads in the presence of J1 antibody supernatants or purified antibody (murine, chimeric or humanised) diluted in HBBS/10% FCS. Cells were washed and re-suspended in staining buffer before being analysed with a FACSCalibur and data analysis with CellQuest. HEK293 cells transfected with human Jagged 2 and B16F10 cells transfected with human and mouse DLL4 were stained similarly to test blocking specificity.

MDA-MB-231 spheroids = assay: Spheroid assay (3-D growth), MDA-MB-231; assay type: cell-based, human; settings: humanised variants 5 μg/ml
Text: Similar findings were also reported for the Merck anti-N1 mAbs when tested on the LS-1034 cell line. As cell-cell contact is required to activate Notch signalling a spheroid-based 3-D growth model was used to test the ability of the J1 mAbs to block tumour growth. Furthermore, the 3-D model better mimics in vivo conditions including hypoxia and acidosis, allowing evaluation of the mAbs effect in a more realistic setting. Spheroids were generated from MDA-MB-231 breast cancer cells and the ability of different concentrations of the J1-65D mAb to inhibit their growth was evaluated.
Cells were harvested and resuspended in 2.5% Matrigel (BD)-complete DMEM medium. Cell suspension was plated on low-adherence 96-well plates (Corning) (200 μl/well) and spheroids, of approximately fixed cell number (5×10^3 cells for MDA-MB-231 and MDA-MB-468 cell lines; 2×10^3 for MCF7 cells) were then generated by spinning plates at 1800 rpm for 10 minutes. The following day, pictures of the spheroids were taken (day 1) and treatments were added (mAbs were used at 10 μg/ml [5 μg/ml for humanised antibodies] while DBZ was used at the concentration of 100 nM). In some experiments Paclitaxel (1 nM) and Doxorubicin (20 nM) were used in combination with J1-65D mAb treatment. Every 2 days pictures were taken and half of the medium was replaced with fresh one containing mAb/drug. At the end of the experiment, spheroids were either lysed for RNA extraction, were processed and paraffin-embedded for immunohistochemical analysis or were dissociated by pipetting and trypsinization into single cell suspensions for FACS analysis. Spheroid size was evaluated by image analysis using ImageJ software.

[2] = Soluble aggregates of transiently expressed antibodies; assay type: physicochemical; settings: Protein A purified antibody
Text: The protein yield of these antibodies, their levels of soluble aggregates and their binding affinity to the immunogen (J1-DE3) are illustrated in (Table 6).

[3] = tested on: J1-induced Notch signalling; assay: Luciferase assay, LS174T RBPJ reporter stimulated with J1 protein; assay type: cell-based, human; settings: humanised/chimeric mAbs 10 μg/ml, NE3-Fc; DBZ control
Description: FIG. 9. […] (A) The colorectal cancer cell line LS174T expressing luciferase under the control of Notch co-factor RBPJ was stimulated with mammalian cell-expressed soluble J1 proteins (NE3-Fc and NE12-Fc) or a control protein in the presence of J1 mAbs (10 μg/ml), and luciferase activity was measured. […] (C) Breast cancer MDA-MB-231 cells were cultured with J1 mAbs. The expression level of the Notch target gene HES1 was measured by qPCR using β2m as the control gene. In all experiments the γ-secretase inhibitor DBZ was used as a positive control for pan Notch inhibition and a control mAb (IgG2b or IgG1) or no treatment (NT) were negative controls.
FIG. 20. Inhibition of human Jagged 1/Notch signalling by humanised and de-immunised J1-mAbs in vitro. The colorectal cancer cell line LS174T expressing luciferase under the control of Notch co-factor RbPJ was stimulated with mammalian cell-expressed recombinant J1 protein (NE3-Fc protein, right bar for each treatment) or a control protein (left bar) in the presence of J1 mAbs (10 μg/ml), and luciferase activity was measured. The parental murine monoclonal antibody (Mo), Murine IgG1, DMSO and DBZ were used as controls.
Having established that the J1 mAbs were able to block the binding of the J1 ligand to its receptor N1 their effect on the activity of the Notch signalling pathway was investigated. The human colorectal cancer cell line LS174T, stably expressing a luciferase reporter gene under control of Notch co-factor RBPJ, was stimulated with two forms of immobilised J1 protein: N-terminus to EGF3 and N-terminus to EGF12. […] Importantly, the best two J1 mAbs (J1-65D and J1-183D) were also tested against other Notch ligands in order to verify ligand specificity.
Prior to experiment, clear bottom 96-well plates (CELLSTAR) wells were coated with either J1-ECD fragments (NE3-Fc and NE12-Fc), other Notch-ligands (J2 or DLL4; both from R&D) or control protein (mlgG2b) at the concentration of 5 μg/ml in 0.1% BSA-PBS (overnight incubation at 4° C.). LS174T colorectal cancer cells, expressing the luciferase gene under control of the Notch cofactor RbPJ, were then plated (4×10^4 cells/well) in the presence of different mAbs (10 μg/ml) or DBZ (100 nM). Luciferase activity was then quantified 24 hours later using the Bright-Glo Luciferase Assay System (Promega).

[4] = final antibody concentration 0.2 μg/ml
[5] = final antibody concentration 0.4 μg/ml
[6] = final antibody concentration 0.6 μg/ml
[7] = final antibody concentration 1.0 μg/ml

T1 sequence (P78504 34-1218): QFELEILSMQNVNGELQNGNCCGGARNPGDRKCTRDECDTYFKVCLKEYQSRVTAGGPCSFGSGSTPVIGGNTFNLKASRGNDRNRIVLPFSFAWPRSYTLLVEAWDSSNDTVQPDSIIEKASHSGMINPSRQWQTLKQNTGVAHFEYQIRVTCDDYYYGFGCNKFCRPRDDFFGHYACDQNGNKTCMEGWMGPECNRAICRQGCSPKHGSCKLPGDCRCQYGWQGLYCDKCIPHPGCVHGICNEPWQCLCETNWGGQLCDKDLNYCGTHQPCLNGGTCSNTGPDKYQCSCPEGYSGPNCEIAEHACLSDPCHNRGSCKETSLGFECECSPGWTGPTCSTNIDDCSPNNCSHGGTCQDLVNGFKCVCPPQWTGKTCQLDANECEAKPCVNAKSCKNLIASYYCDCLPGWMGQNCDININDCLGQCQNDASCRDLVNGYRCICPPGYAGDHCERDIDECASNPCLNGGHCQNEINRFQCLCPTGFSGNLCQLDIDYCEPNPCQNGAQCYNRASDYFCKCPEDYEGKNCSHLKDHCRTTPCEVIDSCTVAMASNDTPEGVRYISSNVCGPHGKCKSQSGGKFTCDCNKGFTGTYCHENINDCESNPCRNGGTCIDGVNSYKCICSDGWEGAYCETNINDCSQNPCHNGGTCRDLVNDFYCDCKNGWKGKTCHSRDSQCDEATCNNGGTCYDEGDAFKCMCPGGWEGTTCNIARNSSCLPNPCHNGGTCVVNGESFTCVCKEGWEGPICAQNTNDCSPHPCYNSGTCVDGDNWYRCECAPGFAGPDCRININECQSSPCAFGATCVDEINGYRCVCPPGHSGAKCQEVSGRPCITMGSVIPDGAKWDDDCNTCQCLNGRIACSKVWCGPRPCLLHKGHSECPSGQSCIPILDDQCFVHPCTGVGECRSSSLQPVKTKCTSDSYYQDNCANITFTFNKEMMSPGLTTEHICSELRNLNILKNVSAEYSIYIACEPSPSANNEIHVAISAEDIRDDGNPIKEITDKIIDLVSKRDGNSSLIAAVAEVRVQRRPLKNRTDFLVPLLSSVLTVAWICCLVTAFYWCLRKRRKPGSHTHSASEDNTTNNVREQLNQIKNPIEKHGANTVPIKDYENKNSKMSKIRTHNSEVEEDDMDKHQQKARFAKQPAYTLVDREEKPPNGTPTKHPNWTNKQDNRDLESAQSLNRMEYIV

Blocking of Notch1 binding to cell surface Jagged 1 [1, 4]	Blocking of Notch1 binding to cell surface Jagged 1 [1, 5]	Blocking of Notch1 binding to cell surface Jagged 1 [1, 6]	Blocking of Notch1 binding to cell surface Jagged 1 [1, 7]	Molecule	spheroid growth inhibition (MDA-MB-231 spheroids)	% soluble aggregate [2] [%]	inhibition of J1-induced luciferase activity [3]
X	+ (Complete blocking)	+ (Complete blocking)	+ (Complete blocking)	J1-183D variant 15: humanised/de-immunised J1-183D: J1-183D_VL_4 + J1-183D_VH_3 (antibody, V domains shown) VH: QVQLVQSGAELKKPGASVKVSCKVSGYAFTDYAIHWVRQAPGQGLEWMGIINTYYGDSKYAQKFQGRVTMTVDTSTSTAYMELSSLRSEDTAVYYCARGYDGFAYWGQGTLVTVSSASTKGP VL: DIQMTQSPSSLSASVGDRVTITCRTSENIYSYLTWYQQKPGKAPKLLIYHAKILDSGVPSRFSGSGSGTDFTLTISSLQPEDFATYYCQHHYDIPWTFGGGTKLEIKRT	increasingly less effect	2.21	
X	+ (Complete blocking)	+ (Complete blocking)	+ (Complete blocking)	J1-183D variant 16: humanised/de-immunised J1-183D: J1-183D_VL_4 + J1-183D_VH_4 (antibody, V domains shown) VH: QVQLVQSGAEVKKPGASVKVSCKASGYTFTDYAIHWVRQAPGQGLEWMGIINTYYGDSKYAQKFQGRVTMTVDTSTSTAYMELSSLRSEDTAVYYCARGYDGFAYWGQGTLVTVSSASTKGP VL: DIQMTQSPSSLSASVGDRVTITCRTSENIYSYLTWYQQKPGKAPKLLIYHAKILDSGVPSRFSGSGSGTDFTLTISSLQPEDFATYYCQHHYDIPWTFGGGTKLEIKRT		0.72	
X	+ (Complete blocking)	+ (Complete blocking)	+ (Complete blocking)	J1-183D variant 12: humanised/de-immunised J1-183D: J1-183D_VL_3 + J1-183D_VH_4 (antibody, V domains shown) VH: QVQLVQSGAEVKKPGASVKVSCKASGYTFTDYAIHWVRQAPGQGLEWMGIINTYYGDSKYAQKFQGRVTMTVDTSTSTAYMELSSLRSEDTAVYYCARGYDGFAYWGQGTLVTVSSASTKGP VL: DIQMTQSPSSLSASVGDRVTITCRTSENIYSYLTWYQQKPGKAPKLLIYNAKILDSGVPSRFSGSGSGTDFTLTISSLQPEDFATYYCQHHYDIPWTFGGGTKLEIKRT	increasingly less effect	0.66	
X	+ (Complete blocking)	+ (Complete blocking)	+ (Complete blocking)	J1-65D variant 4: humanised/de-immunised J1-65D: J1-65D_VL_1 + J1-65D_VH_4 (antibody, V domains shown) VH: QVQLVQSGAEVKKPGSSVKVSCKASGYTFTDYEMHWVRQAPGQGLEWMGAIQPGGGGTAYAQKFQGRVTITADKSTSTAYMELSSLRSEDTAVYYCTRRGYDDYPFAYWGQGTLVTVSSASTKGP VL: DIQMTQSPSSLSASVGDRVTITCRASGNIHNYLAWYQQKPGKAPKLLIYNAKTLADDVPSRFSGSGSGTDYTLTISSLQPEDFATYYCQHFWSAPWTFGGGTKLEIKRT	slightly reduced ability to inhibit spheroid growth	0	inhibited as effectively as by the parental murine mAb
X	+ (Complete blocking)	+ (Complete blocking)	+ (Complete blocking)	J1-65D chimeric: chimeric antibody with unaltered CDRs: J1-65D_VL + J1-65D_VH (antibody, V domains shown) VL: DIQLTQSPASLSASVGETVTITCRASGNIHNYLAWYQQKQGKSPQLLVYNAKTLADDIPSRFSGSGSGTQYSLKINSLQPEDFGSYYCQHFWSAPWTFGGGTKLEIK VH: QVQLQQPGAELVRPGASVKLSCKALGYTFTDYEMHWVKETPVHGLEWIGAIQPGGGGTAYNQKFKGKATLTADKSSSTAYMELSSLTSEDSAVYYCTRRGYDDYPFAYWGQGTLVTVSS		0	
